Assay results: article PMC4952014 (2015)

B1: Siglec-1 (recombinant protein used for SPR) (receptor)
chain: SWGVSSPQDVQGVKGSCLLIPCIFSFPADVEVPDGITAIWYYDYSGQRQVVSHSADPKLVEARFRGRTEFMGNPEHRVCNLLLKDLQPEDSGSYNFRFEISEVNRWSDVKGTLVTVTEEPRVPTIASPVELLEGTEVDFNCSTPYVCLQEQVRLQWQGQDPARSVTFNSQKFEPTGVGHLETLHMAMSWQDHGRILRCQLSVANHRAQSEIHLQVKYAPKGVKILLSPSGRNILPGELVTLTCQVNSSYPAVSSIKWLKDGVRLQTKTGVLHLPQAAWSDAGVYTCQAENGVGSLVSPPISLHIFMAEVQVSPAGPILENQTVTLVCNTPNEAPSDLRYSWYKNHVLLEDAHSHTLRLHLATRADTGFYFCEVQNVHGSERSGPVSVVVNHPPLTPVLTAFLETQAGLVGILHCSVVSEPLATLVLSHGGHILASTSGDSDHSPRFSGTSGPNSLRLEIRDLEETDSGEYKCSATNSLGNATSTLDFHANAARLLISPAAEVVEGQAVTLSCRSGLSPTPDARFSWYLNGALLHEGPGSSLLLPAASSTDAGSYHCRARDGHSASGPSSPAVLTVLYPPRQPTFTTRLDLDAAGAGAGRRGLLLCRVDSDPPARLQLLHKDRVVATSLPSGGGCSTCGGCSPRMKVTKAPNLLRVEIHNPLLEEEGLYLCEASNALGNASTSATFNGQATVLAIAPSHTLQEGTEANLTCNVSREAAGSPANFSWFRNGVLWAQGPLETVTLLPVARTDAALYACRILTEAGAQLSTPVLLSVLYPPDRPKLSALLDMGQGHMALFICTVDSRPLALLALFHGEHLLATSLGPQVPSHGRFQAKAEANSLKLEVRELGLGDSGSYRCEATNVLGSSNTSLFFQVRGAWVQVSPSPELQEGQAVVLSCQVHTGVPEGTSYRWYRDGQPLQESTSATLRFAAITLTQAGAYHCQAQAPGSATTSLAAPISLHVSYAPRHVTLTTLMDTGPGRLGLLLCRVDSDPPAQLRLLHGDRLVASTLQGVGGPEGSSPRLHVAVAPNTLRLEIHGAMLEDEGVYICEASNTLGQASASADFDAQAVNVQVWPGATVREGQLVNLTCLVWTTHPAQLTYTWYQDGQQRLDAHSIPLPNVTVRDATSYRCGVGPPGRAPRLSRPITLDVLYAPRNLRLTYLLESHGGQLALVLCTVDSRPPAQLALSHAGRLLASSTAASVPNTLRLELRGPQPRDEGFYSCSARSPLGQANTSLELRLEGVRVILAPEAAVPEGAPITVTCADPAAHAPTLYTWYHNGRWLQEGPAASLSFLVATRAHAGAYSCQAQDAQGTRSSRPAALQVLYAPQDAVLSSFRDSRARSMAVIQCTVDSEPPAELALSHDGKVLATSSGVHSLASGTGHVQVARNALRLQVQDVPAGDDTYVCTAQNLLGSISTIGRLQVEGARVVAEPGLDVPEGAALNLSCRLLGGPGPVGNSTFAWFWNDRRLHAEPVPTLAFTHVARAQAGMYHCLAELPTGAAASAPVMLRVLYPPKTPTMMVFVEPEGGLRGILDCRVDSEPLASLTLHLGSRLVASSQPQGAPAEPHIHVLASPNALRVDIEALRPSDQGEYICSASNVLGSASTSTYFGVRALHRLHQFQQLLWVLGLLVGLLLLLLGLGACYTWRRRRVCKQSMGENSVEMAFQKETTQLIDPDAATCETSTCAPPLG

Key:
Soc-V1V2JR-FL (293F) = Soc-V1V2JR-FL (293F) (bacteriophage T4 | HIV-1 JR-FL); experiment: SPR; immobilized Siglec-1
JR-FL FD trimeric gp145 [1] = target: T1, JR-FL FD trimeric gp145 (HIV-1 JR-FL | bacteriophage T4); experiment: SPR; immobilized JR-FL gp145
Soc-V1V2SF162 (CHO-S) = Soc-V1V2SF162 (CHO-S) (bacteriophage T4 | HIV-1 SF162); experiment: SPR; immobilized Siglec-1
JR-FL FD trimeric gp145 [2] = target: T1, JR-FL FD trimeric gp145; experiment: SPR; immobilized Siglec-1
SF162 FD trimeric gp145 [3] = target: T2, SF162 FD trimeric gp145 (HIV-1 SF162 | bacteriophage T4, UniProt P19551); experiment: SPR; immobilized Siglec-1
SF162 FD trimeric gp145 [4] = target: T2, SF162 FD trimeric gp145; experiment: SPR; immobilized SF162 gp145
[5] = target: B1; experiment: SPR; immobilized Siglec-1

Binder	Kd (Soc-V1V2JR-FL (293F)) [nM]	Kd (JR-FL FD trimeric gp145 [1]) [nM]	Kd (Soc-V1V2SF162 (CHO-S)) [nM]	Kd (JR-FL FD trimeric gp145 [2]) [nM]	Kd (SF162 FD trimeric gp145 [3]) [nM]	Kd (SF162 FD trimeric gp145 [4]) [nM]	Kd [5] [nM]
B1	4.34	2.9	1.96	0.28	0.441	8.26	
JR-FL monomeric gp120 (natural protein, N-glycosylated and sialylated (293F-expressed). Limits are not printed: start is the candidate's CHAIN start at 32, end is the residue before gp41 at 503. A vector-derived N-terminus from the CD5 leader, and a C-terminus affected by the cleavage-site change, are possible but not stated.) not shown							4.13
